As a reminder, the IC50 is the concentration that gives 50% inhibition. Read a high IC50 as lower potency. Broadly, the % inhibition is how much of the control response was suppressed. The low end stands for a weak effect, the high end for a strong effect.

Assay [1] concerns the target antibody tested in the epitope mapping of Example 5. Nature of the assay: HTRF competition, test protein against biotinylated human IL-4Rα/Fc for cryptate labelled antibody.
The target is the same in assay [2]. The assay is described as above. This is another data set of the same source.
Assay [3] has the same target. The description is as above. The source holds these as a separate data set.
Assay [4] shares this target. Description: HTRF competition. Background: In TR-FRET formats the signal depends on donor and acceptor labels being close together.

Where two headings read alike, the source gives them in different places.

B1: HuD1MoD2IL-4Rα (receptor)
chain: MKVLQEPTCVSDYMSISTCEWKMNGPTNCSTELRLLYQLVFLLSEAHTCIPENNGGAGCVCHLLMDDVVSADNYTLDLWAGQQLLWKGSFKPSENVKPLAPDNLTLHTNVSDEWLLTWNNLYPSNNLLYKDLISMVNISREDNPAEFIVYNVTYKEPRLSFPINILMSGVYYTARVRVRSQILTGTWSEWSPSITWYNHFQLPLDYKDDDDKAAHHHHHHHHHH
In assay [1], B1 had an IC50 of 3.4 nM.

B2: MoIL-4Rα (receptor)
chain: IKVLGEPTCFSDYIRTSTCEWFLDSAVDCSSQLCLHYRLMFFEFSENLTCIPRNSASTVCVCHMEMNRPVQSDRYQMELWAEHRQLWQGSFSPSGNVKPLAPDNLTLHTNVSDEWLLTWNNLYPSNNLLYKDLISMVNISREDNPAEFIVYNVTYKEPRLSFPINILMSGVYYTARVRVRSQILTGTWSEWSPSITWYNHFQLPLNPAFLYKVVGAADYKDDDDKAAHHHHHHHHHH
Turning to B2, the % inhibition at the highest concentration (1000 nM) in assay [1] amounted to 45%.

B3: AllMoLoopsHuIL-4Rα (receptor)
chain: MKVLQEPTCVSDYIRTSTCEWKMNGPTNCSTELRLLYQLMFFEFSENLTCIPENNGGAGCVCHLEMNRPVQSDRYTLDLWAGQQLLWKGSFKPSEHVKPRAPGNLTVHTNVSDTLLLTWNNLYPSNNYLYNHLTYAVNIWSENDPADFRIYNVTYLEPSLRIAASTLKSGISYRARVRAWSQILTGTWSEWSPSTKWHNSYREPFDYKDDDDKAAHHHHHHHHHH
Regarding B3, the % inhibition at the highest concentration (1000 nM) in assay [1] is 41%.

B4: MoLoop3HuIL-4Rα (receptor)
chain: MKVLQEPTCVSDYMSISTCEWKMNGPTNCSTELRLLYQLVFLLSEAHTCIPENNGGAGCVCHLEMNRPVQSDRYTLDLWAGQQLLWKGSFKPSEHVKPRAPGNLTVHTNVSDTLLLTWSNPYPPDNYLYNHLTYAVNIWSENDPADFRIYNVTYLEPSLRIAASTLKSGISYRARVRAWAQCYNTTWSEWSPSTKWHNSYREPFDYKDDDDKAAHHHHHHHHHH
As to B4, the % inhibition at the highest concentration (1000 nM) came to 45% in assay [2] and 58% in assay [1].

B5: MoD1HuD2IL-4Rα (receptor)
chain: IKVLGEPTCFSDYIRTSTCEWFLDSAVDCSSQLCLHYRLMFFEFSENLTCIPRNSASTVCVCHMEMNRPVQSDRYQMELWAEHRQLWQGSFSPSGHVKPRAPGNLTVHTNVSDTLLLTWSNPYPPDNYLYNHLTYAVNIWSENDPADFRIYNVTYLEPSLRIAASTLKSGISYRARVRAWAQCYNTTWSEWSPSTKWHNSYREPFDYKDDDDKAAHHHHHHHHHH
Take B5: the % inhibition at the highest concentration (1000 nM) in assay [1] worked out at 34%.

B6: MoLoop2HuIL-4Rα (receptor)
chain: MKVLQEPTCVSDYMSISTCEWKMNGPTNCSTELRLLYQLMFFEFSENLTCIPENNGGAGCVCHLLMDDVVSADNYTLDLWAGQQLLWKGSFKPSEHVKPRAPGNLTVHTNVSDTLLLTWSNPYPPDNYLYNHLTYAVNIWSENDPADFRIYNVTYLEPSLRIAASTLKSGISYRARVRAWAQCYNTTWSEWSPSTKWHNSYREPFDYKDDDDKAAHHHHHHHHHH
For B6, the values for the IC50 in assay [3] and in assay [1] were 25 nM and 23 nM, respectively. The molecule further displayed a fold higher IC50 than human IL-4Rα in assay [4] of 100 fold.

B7: EM23 (receptor)
chain: MKVLQEPTCVSDYMSISTCEWKMNGPTNCSTELRLLYQLMFFEFSENHTCIPENNGGAGCVCHLLMDDVVSADNYTLDLWAGQQLLWKGSFKPSEHVKPRAPGNLTVHTNVSDTLLLTWSNPYPPDNYLYNHLTYAVNIWSENDPADFRIYNVTYLEPSLRIAASTLKSGISYRARVRAWAQCYNTTWSEWSPSTKWHNSYREPFDYKDDDDKAAHHHHHHHHHH
In assay [3], B7 gave an IC50 of 56 nM.

B8: EM18 (receptor)
chain: MKVLQEPTCVSDYMSISTCEWKMNGPTNCSTELRLLYQLVFFEFSENLTCIPENNGGAGCVCHLLMDDVVSADNYTLDLWAGQQLLWKGSFKPSEHVKPRAPGNLTVHTNVSDTLLLTWSNPYPPDNYLYNHLTYAVNIWSENDPADFRIYNVTYLEPSLRIAASTLKSGISYRARVRAWAQCYNTTWSEWSPSTKWHNSYREPFDYKDDDDKAAHHHHHHHHHH
B8 came in with an IC50 in assay [3] of 20 nM.

B9: EM01 (receptor)
chain: MKVLQEPTCVSDYMSISTCEWKMNGPTNCSTELRLLYQLVFLLSEAHTCIPENNGGAGCVCHLEMDDVVSADNYTLDLWAGQQLLWKGSFKPSEHVKPRAPGNLTVHTNVSDTLLLTWSNPYPPDNYLYNHLTYAVNIWSENDPADFRIYNVTYLEPSLRIAASTLKSGISYRARVRAWAQCYNTTWSEWSPSTKWHNSYREPFNPAFLYKVVGAADYKDDDDKAAHHHHHHHHHH
In assay [2], B9 returned an IC50 of 0.71 nM.

B10: EM03 (receptor)
chain: MKVLQEPTCVSDYMSISTCEWKMNGPTNCSTELRLLYQLVFLLSEAHTCIPENNGGAGCVCHLLMDRVVSADNYTLDLWAGQQLLWKGSFKPSEHVKPRAPGNLTVHTNVSDTLLLTWSNPYPPDNYLYNHLTYAVNIWSENDPADFRIYNVTYLEPSLRIAASTLKSGISYRARVRAWAQCYNTTWSEWSPSTKWHNSYREPFNPAFLYKVVGAADYKDDDDKAAHHHHHHHHHH
The molecule B10 gave a % inhibition at the highest concentration (1000 nM) in assay [2] of 29%.

B11: EM07 (receptor)
chain: MKVLQEPTCVSDYMSISTCEWKMNGPTNCSTELRLLYQLVFLLSEAHTCIPENNGGAGCVCHLLMDDVVSADRYTLDLWAGQQLLWKGSFKPSEHVKPRAPGNLTVHTNVSDTLLLTWSNPYPPDNYLYNHLTYAVNIWSENDPADFRIYNVTYLEPSLRIAASTLKSGISYRARVRAWAQCYNTTWSEWSPSTKWHNSYREPFNPAFLYKVVGAADYKDDDDKAAHHHHHHHHHH
As to B11, in assay [2], the IC50 turned out to be 1.41 nM.

B12: EM05 (receptor)
chain: MKVLQEPTCVSDYMSISTCEWKMNGPTNCSTELRLLYQLVFLLSEAHTCIPENNGGAGCVCHLLMDDVVQADNYTLDLWAGQQLLWKGSFKPSEHVKPRAPGNLTVHTNVSDTLLLTWSNPYPPDNYLYNHLTYAVNIWSENDPADFRIYNVTYLEPSLRIAASTLKSGISYRARVRAWAQCYNTTWSEWSPSTKWHNSYREPFNPAFLYKVVGAADYKDDDDKAAHHHHHHHHHH
In the case of B12, the IC50 in assay [2] was 1.65 nM.

B13: EM02 (receptor)
chain: MKVLQEPTCVSDYMSISTCEWKMNGPTNCSTELRLLYQLVFLLSEAHTCIPENNGGAGCVCHLLMNDVVSADNYTLDLWAGQQLLWKGSFKPSEHVKPRAPGNLTVHTNVSDTLLLTWSNPYPPDNYLYNHLTYAVNIWSENDPADFRIYNVTYLEPSLRIAASTLKSGISYRARVRAWAQCYNTTWSEWSPSTKWHNSYREPFNPAFLYKVVGAADYKDDDDKAAHHHHHHHHHH
With B13, the IC50 in assay [2] is 2.25 nM.

B14: EM04 (receptor)
chain: MKVLQEPTCVSDYMSISTCEWKMNGPTNCSTELRLLYQLVFLLSEAHTCIPENNGGAGCVCHLLMDDPVSADNYTLDLWAGQQLLWKGSFKPSEHVKPRAPGNLTVHTNVSDTLLLTWSNPYPPDNYLYNHLTYAVNIWSENDPADFRIYNVTYLEPSLRIAASTLKSGISYRARVRAWAQCYNTTWSEWSPSTKWHNSYREPFNPAFLYKVVGAADYKDDDDKAAHHHHHHHHHH
Consider B14, for which, in assay [2], the IC50 was found to be 15 nM. Moreover, the fold higher IC50 than human IL-4Rα in assay [4] is 20 fold.

B15: EM06 (receptor)
chain: MKVLQEPTCVSDYMSISTCEWKMNGPTNCSTELRLLYQLVFLLSEAHTCIPENNGGAGCVCHLLMDDVVSSDNYTLDLWAGQQLLWKGSFKPSEHVKPRAPGNLTVHTNVSDTLLLTWSNPYPPDNYLYNHLTYAVNIWSENDPADFRIYNVTYLEPSLRIAASTLKSGISYRARVRAWAQCYNTTWSEWSPSTKWHNSYREPFNPAFLYKVVGAADYKDDDDKAAHHHHHHHHHH
For the molecule B15, in assay [2], the IC50 stood at 3.25 nM.

The record behind these values is patent US20180057596A1.
